{
  "source": "paper PMC4270787",
  "about": "(PLoS ONE, 2014)",
  "molecules": {"B1": {"name": "PLA2 vurtoxin from V. ursinii venom (enzyme)", "chain": "SLLEFGMMILEETGKNPLTSYSFYGCYCGVGGKGTPKDATDRCCFVHDCCYGNLPDCNPKIDRYKYHRKNGAIVCGKGTSCENRICECDRAAAICFRKNLKTYNHIYKYYPDFLCKKESEKC"}, "B2": {"name": "PLA2 CM-II from N. kaouthia venom (enzyme)", "chain": "NLYQFKNMIQCTVPNRSWWDFADYGCYCGRGGSGTPVDDLDRCCQVHDNCYNEAEKISRCWPYFKTYSYECSQGTLTCKGDNDACAAAVCDCDRLAAICFAGAPYNNNNYNIDLKARCQ"}, "B3": {"name": "PLA2 Vur-PL2 from V. ursinii venom (enzyme)", "chain": "NLYQFGKMIRYKTGKSALLSYSDYGCYCGWGGQGKPKDATDRCCFVHDCCYGRVNGCDPKLTIYSYSFENGDIVCGGDDSCKRAVCECDRVAAICFGENLNTYDKKYKNYPSSQCTETEQC"}},
  "assay_in_all_cases": "radioligand binding",
  "key": {"[1]": {"molecular_target": "acetylcholine-binding protein from Aplysia californica (A. californica)"}, "[2]": {"molecular_target": "T1, human neuronal α7 nicotinic acetylcholine receptor (human, UniProt P36544 23-502)", "T1 construct": "also called human α7 nAChR; α7 nAChR", "settings": "one partner purified"}, "[3]": {"molecular_target": "T2, T. californica muscle-type nicotinic acetylcholine receptor (T. californica, UniProt P02710 25-461; P02712 25-493; P02714 18-506; P02718 22-522)", "T2 construct": "also called T. californica nAChR; Torpedo nAChR", "settings": "one partner purified"}, "[4]": {"molecular_target": "T3, acetylcholine-binding protein from L. stagnalis (L. stagnalis, UniProt P58154 20-229)", "T3 construct": "also called L. stagnalis AChBP", "settings": "both partners purified"}},
  "data": [
    {"molecule": "PLA2 vurtoxin from V. ursinii venom (from UniProt F8QN54 17-138) (enzyme)", "values": [
      {"measurement": "IC50", "setting": "[1]", "result": "> 30", "unit": "µM"}
    ]},
    {"molecule": "PLA2 CM-II from N. kaouthia venom (from UniProt P00596 28-146) (enzyme)", "values": [
      {"measurement": "IC50", "setting": "[1]", "result": "> 100", "unit": "µM"}
    ]},
    {"molecule": "B1", "values": [
      {"measurement": "IC50", "setting": "[2]", "result": "14 ± 5", "unit": "µM"},
      {"measurement": "IC50", "setting": "[3]", "result": "0.26 ± 0.02", "unit": "µM"},
      {"measurement": "IC50", "setting": "[4]", "result": "> 30", "unit": "µM"}
    ]},
    {"molecule": "B2", "values": [
      {"measurement": "IC50", "setting": "[2]", "result": "3.2 ± 0.3", "unit": "µM"},
      {"measurement": "IC50", "setting": "[3]", "result": "1.2 ± 0.1", "unit": "µM"},
      {"measurement": "IC50", "setting": "[4]", "result": "1 ± 0.03", "unit": "µM"}
    ]},
    {"molecule": "B3", "values": [
      {"measurement": "IC50", "setting": "[2]", "result": "29 ± 2", "unit": "µM"},
      {"measurement": "IC50", "setting": "[3]", "result": "> 100", "unit": "µM"},
      {"measurement": "IC50", "setting": "[4]", "result": "> 30", "unit": "µM"}
    ]}
  ]
}
